B1: BN-B03-DNA unmodified (ssDNA)
DNA: GAAGGTGAAGGTCGGCTGAAGCATTAGACCTAAGCACGCTGCCACAAGTCCTGGTTCCCTGGCTTAGGTCTAATGCACCATCATCACCATCTTC
B2: BN-B99-DNA unmodified (ssDNA)
DNA: GAAGGTGAAGGTCGGCTGAAGCATCAGACCTAAGCCCAAATTGCCGCAGACTCGTTGTGAAGCTTAGGTCTAATGCACCATCATCACCATCTTC

Target: West Nile virus envelope protein domain III (WNDIII, WNE-rDIII) (West Nile virus strain Wengler, UniProt P06935 P06935:582-692)
Test: ELONA; unmodified DNA unable to bind
Details: tags: 6xHis; with or without biotin acceptor peptide (BAP); label: 5' biotin

Sequence of West Nile virus envelope protein domain III (WNDIII, WNE-rDIII) (P06935 582-692, one chain of several): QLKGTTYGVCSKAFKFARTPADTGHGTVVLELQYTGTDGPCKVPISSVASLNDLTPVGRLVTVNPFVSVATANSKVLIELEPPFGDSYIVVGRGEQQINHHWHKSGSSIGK

| Binder | binding result |
| --- | --- |
| B1 | no binding |
| B2 | no binding |
